Consider 55 sequences from the supplement of paper PMC11780869.

This series relates to Bacillus subtilis. Description: cleaved RNA product abundance (RNA/gDNA barcode ratio) relative to median wild-type variant (ratio to wild type); higher = more accumulation of the downstream cleavage product. Particulars: cleavage site: cggR-gapA (positions -7 to +36 mutated). The gist of the method:
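The B. subtilis chromosome carried reporter mRNAs, truncated aprE or tetM, containing barcoded RNase Y cleavage-site windows mutagenized using oligos with a 9% error rate. After growth in LB at 37°C from OD600 0.0003 to 0.3, cleaved RNA was gel-selected, reverse transcribed and barcode-sequenced next to genomic DNA barcodes, with UMI collapsing. Each construct's RNA:gDNA barcode ratio was scaled to the median construct with the unmutated site. That scaled ratio is reported as cleaved product abundance.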

The mark [1] stands for this setting: experiment (reporter, strain, medium): exp 2b: truncated aprE reporter, strain BJT200.
[2] abbreviates: experiment (reporter, strain, medium): exp 4a: truncated aprE reporter, strain BJT201 with 2% xylose (RNase J1 expressed).

Turning to “ACAGACGAAGGAGCCGCAAATAAGTTATTAAGGGATGATTAATCCCTCAATATAAATATCTCTCACTTATTTAAA”, the “cleaved RNA product abundance” value is, setting by setting: under setting [1], 0.783; under setting [2], 0.697.

As to “ACAGACGAAGGAGCCGCAAATAAGTTATTAAGGGATGCATAATCCCTCAATATAAATATCTCTCACTTATTTAAA”, the “cleaved RNA product abundance” value under setting [2] amounted to 1.1.

For “ACAGACGAAGGAGCCGCAAATAAGTTATTAAGGGATGTATAATCCCTCAATATAAATATCTCTCACTTATTTAAA”, under setting [2], the “cleaved RNA product abundance” value was found to be 0.901.

For the sequence “ACAGACGAAGGAGCCGCAAATAAGTTATTAAGGGATTAATAATCCCTCAATATAAATATCTCTCACTTATTTAAA”, the “cleaved RNA product abundance” value is, setting by setting: under setting [1], 0.863; under setting [2], 0.881.

Turning to “ACAGACGAAGGAGCCGCAAATAAGTTATTAAGGGCTGAATAATCCCTCAATATAAATATCTCTCACTTATTTAAA”, under setting [2], the “cleaved RNA product abundance” value was determined as 0.627.

Consider “ACAGACGAAGGAGCCGCAAATAAGTTATTAAGGGGTGAATAATCCCTCAATATAAATATCTCTCACTTATTTAAA”, for which, under setting [2], the “cleaved RNA product abundance” value came out at 0.273.

For “ACAGACGAAGGAGCCGCAAATAAGTTATTAAGGGTTGAATAATCCCTCAATATAAATATCTCTCACTTATTTAAA”, the “cleaved RNA product abundance” value under setting [1] worked out at 0.425 and the “cleaved RNA product abundance” value under setting [2] came to 0.423.

As for “ACAGACGAAGGAGCCGCAAATAAGTTATTAAGGTATGAATAAACCCTCAATATAAATATCTCTCACTTATTTAAA”, the “cleaved RNA product abundance” value under setting [1] was 0.118.

Consider “ACAGACGAAGGAGCCGCAAATAAGTTATTAAGGTATGAATAATCCCTCAATATAAATATCTCTCACTTATTTAAA”, for which the “cleaved RNA product abundance” value was 0.169 under setting [1] and 0.139 under setting [2].

Consider “ACAGACGAAGGAGCCGCAAATAAGTTATTAAGGTATGAATAATCCCTCAATATAAATTTCTCTCACTTATTTAAA”, for which the “cleaved RNA product abundance” value under setting [2] was 0.159.

Turning to “ACAGACGAAGGAGCCGCAAATAAGTTATTAAGGTTTGAATAATCCCTCAATATAAATATCTCTCACTTATTTAAA”, under setting [2], the “cleaved RNA product abundance” value was 0.0913.

Take “ACAGACGAAGGAGCCGCAAATAAGTTATTAAGTGATGAATAATCCCTCAATATAAATATCTCTCACTTATTTAAA”: the “cleaved RNA product abundance” value by setting is: under setting [1], 0.109; under setting [2], 0.107.

As for “ACAGACGAAGGAGCCGCAAATAAGTTATTAATGAATGAATAATCCCTCAATATAAATATCTCTCACTTATTTAAA”, under setting [2], the “cleaved RNA product abundance” value came to 0.107.

As to “ACAGACGAAGGAGCCGCAAATAAGTTATTAATGGATGAATAATCCCTCAATATAAATATCTCTCACTTATTTAAA”, the “cleaved RNA product abundance” value under setting [1] was determined as 0.123 and the “cleaved RNA product abundance” value under setting [2] stood at 0.184.

On to “ACAGACGAAGGAGCCGCAAATAAGTTATTAATGGATGAATAATCCCTCATTATAAATATCTCTCACTTATTTAAA”, for which the “cleaved RNA product abundance” value under setting [2] was found to be 0.135.

On to “ACAGACGAAGGAGCCGCAAATAAGTTATTACGGGATGAATAATCCCTCAATATAAATATCTCTCACTTATTTAAA”, for which the “cleaved RNA product abundance” value under setting [2] was determined as 0.36.

On to “ACAGACGAAGGAGCCGCAAATAAGTTATTAGGGGATGAATAATCCCTCAATATAAATATCTCTCACTTATTTAAA”, for which the “cleaved RNA product abundance” value under setting [1] was 0.603.

As to “ACAGACGAAGGAGCCGCAAATAAGTTATTATGGGATGAATAATCCCTCAATATAAATATCTCTCACTTATTTAAA”, the “cleaved RNA product abundance” value under setting [2] was 0.365.

In the case of “ACAGACGAAGGAGCCGCAAATAAGTTATTATGGGATGAATAATCCCTCTATATAAATATCTCTCACTTATTTAAA”, the “cleaved RNA product abundance” value under setting [2] turned out to be 0.483.

In the case of “ACAGACGAAGGAGCCGCAAATAAGTTATTCAGGGATGAATAATCCCTCAATATAAATATCTCTCACTTATTTAAA”, under setting [2], the “cleaved RNA product abundance” value is 1.09.

Take “ACAGACGAAGGAGCCGCAAATAAGTTATTTAGGGATGAATAATCCCTCAATATAAATATCTCTCACTTATTTAAA”: the “cleaved RNA product abundance” value runs as follows: under setting [1], 0.993; under setting [2], 0.766.

Take “ACAGACGAAGGAGCCGCAAATAAGTTCTTAAGGGATGAATAATCCCTCAATATAAATATCTCTCACTTATTTAAA”: the “cleaved RNA product abundance” value under setting [1] turned out to be 0.148 and the “cleaved RNA product abundance” value under setting [2] worked out at 0.258.

With “ACAGACGAAGGAGCCGCAAATAAGTTGTTAAGGGATGAATAATCCCTCAATATAAATATCTCTCACTTATTTAAA”, the “cleaved RNA product abundance” value under setting [2] is 0.458.

With “ACAGACGAAGGAGCCGCAAATAAGTTTTTAAGGGATGAATAATCCCTCAATATAAATATCTCTCACTTATTTAAA”, the “cleaved RNA product abundance” value is, setting by setting: under setting [1], 0.29; under setting [2], 0.402.

As for “ACAGACGAAGGAGCCGCAAATAATTTATTAAGGGATGAATAATCCCTCAATATAAATATCTCTCACTTATTTAAA”, the “cleaved RNA product abundance” value was 0.866 under setting [1] and 0.591 under setting [2].

“ACAGACGAAGGAGCCGCAAATACGTTATTAAGGGATGAATAAACCCTCAATATAAATATCTCTCACTTATTTAAA”: under setting [2], the “cleaved RNA product abundance” value came to 0.383.

Regarding “ACAGACGAAGGAGCCGCAAATACGTTATTAAGGGATGAATAATCCCTCAATATAAATATCTCTCACTTATTTAAA”, under setting [2], the “cleaved RNA product abundance” value was found to be 0.984.

“ACAGACGAAGGAGCCGCAAATATGTTATTAAGGGATGAATAATCCCTCAATATAAATATCTCTCACTTATTTAAA”: under setting [2], the “cleaved RNA product abundance” value came to 1.1.

For the sequence “ACAGACGAAGGAGCCGCAAATGAGTTATTAAAGGATGAATAATCCCTCAATATAAATATCTCTCACTTATTTAAA”, the “cleaved RNA product abundance” value under setting [1] was found to be 0.181.

For the sequence “ACAGACGAAGGAGCCGCAAATGAGTTATTAAGGGATGAATAATCCCTCAATATAAATATCTCTCACTTATTTAAA”, the “cleaved RNA product abundance” value under setting [2] came to 1.15.

Turning to “ACAGACGAAGGAGCCGCAAATTAGTTATTAAGGGATGAAAAATCCCTCAATATAAATATCTCTCACTTATTTAAA”, the “cleaved RNA product abundance” value under setting [2] is 0.655.

With “ACAGACGAAGGAGCCGCAAATTAGTTATTAAGGGATGAATAATCCCTCAATATAAATATCTCTCACTTATTTAAA”, the “cleaved RNA product abundance” value under setting [2] is 0.919.

“ACAGACGAAGGAGCCGCAAATTAGTTATTAAGGGATGAATAATCCCTCTATATAAATATCTCTCACTTATTTAAA”: the “cleaved RNA product abundance” value under setting [2] came to 0.215.

Turning to “ACAGACGAAGGAGCCGCAAATTAGTTATTAATGGATGAATAATCCCTCAATATAAATATCTCTCACTTATTTAAA”, the “cleaved RNA product abundance” value under setting [2] was 0.153.

In the case of “ACAGACGAAGGAGCCGCAACAAAGTTATTAAGGGATGAATAATCCCTCAATATAAATATCTCTCACTTATTTAAA”, the “cleaved RNA product abundance” value under setting [2] was 0.8.

“ACAGACGAAGGAGCCGCAACAAGTTATTAAGGGATGAATAATCCCTCAATATAAATATCTCTCACTTATTTAAAG”: the “cleaved RNA product abundance” value under setting [2] was found to be 0.581.

Turning to “ACAGACGAAGGAGCCGCAACGAAATTATTAAGGGATGAATAATCCCTCAATATAAATATCTCTCACTTATTTAAA”, the “cleaved RNA product abundance” value under setting [1] is 1.1 and the “cleaved RNA product abundance” value under setting [2] was found to be 1.03.

For “ACAGACGAAGGAGCCGCAACGAAGTAATTAAGGGATGAATAATCCCTCAATATAAATATCTCTCACTTATTTAAA”, the “cleaved RNA product abundance” value under setting [2] came to 0.347.

In the case of “ACAGACGAAGGAGCCGCAACGAAGTTAATAAGGGATGAATAATCCCTCAATATAAATATCTCTCACTTATTTAAA”, the “cleaved RNA product abundance” value under setting [1] came to 0.227.

For “ACAGACGAAGGAGCCGCAACGAAGTTATAAAGGGATGAATAATCCCTCAATATAAATATCTCTCACTTATTTAAA”, under setting [2], the “cleaved RNA product abundance” value turned out to be 0.54.

For “ACAGACGAAGGAGCCGCAACGAAGTTATTAAAGGATGAATAATCCCTCAATATAAATATCTCTCACTTATTTAAA”, the “cleaved RNA product abundance” value under setting [2] worked out at 0.213.

For “ACAGACGAAGGAGCCGCAACGAAGTTATTAACGGATGAATAATCCCTCAATATAAATATCTCTCACTTATTTAAA”, under setting [2], the “cleaved RNA product abundance” value was 0.155.

On to “ACAGACGAAGGAGCCGCAACGAAGTTATTAAGAGATGAATAATCCCTCAATATAAATATCTCTCACTTATTTAAA”, for which the “cleaved RNA product abundance” value under setting [2] came out at 0.137.

With “ACAGACGAAGGAGCCGCAACGAAGTTATTAAGGAATAAATAATCCCTCAATATAAATATCTCTCACTTATTTAAA”, the “cleaved RNA product abundance” value under setting [2] was found to be 0.0859.

Regarding “ACAGACGAAGGAGCCGCAACGAAGTTATTAAGGAATGAATAATCCCTCAATATAAATATCTCTCACTTATTTAAA”, the “cleaved RNA product abundance” value was 0.116 under setting [1] and 0.126 under setting [2].

In the case of “ACAGACGAAGGAGCCGCAACGAAGTTATTAAGGGAAGAATAATCCCTCAATATAAATATCTCTCACTTATTTAAA”, under setting [2], the “cleaved RNA product abundance” value was 1.23.

As for “ACAGACGAAGGAGCCGCAACGAAGTTATTAAGGGACGAATAATCCCTCAATATAAATATCTCTCACTTATTTAAA”, under setting [2], the “cleaved RNA product abundance” value came to 0.585.

Take “ACAGACGAAGGAGCCGCAACGAAGTTATTAAGGGATAAATAATCCCTCAATATAAATATCTCTCACTTATTTAAA”: the “cleaved RNA product abundance” value was 0.891 under setting [1] and 0.739 under setting [2].

For “ACAGACGAAGGAGCCGCAACGAAGTTATTAAGGGATGAACAATCCCTCAATATAAATATCTCTCACTTATTTAAA”, under setting [2], the “cleaved RNA product abundance” value was found to be 0.631.

Regarding “ACAGACGAAGGAGCCGCAACGAAGTTATTAAGGGATGAATAAACCCTCAATATAAATATCTCTCACTTATTTAAA”, the “cleaved RNA product abundance” value under setting [2] worked out at 0.538.

Regarding “ACAGACGAAGGAGCCGCAACGAAGTTATTAAGGGATGAATAATACCTCAATATAAATATCTCTCACTTATTTAAA”, the “cleaved RNA product abundance” value is, setting by setting: under setting [1], 0.111; under setting [2], 0.18.

With “ACAGACGAAGGAGCCGCAACGAAGTTATTAAGGGATGAATAATCCCTCAAAATAAATATCTCTCACTTATTTAAA”, under setting [2], the “cleaved RNA product abundance” value was found to be 0.357.

Turning to “ACAGACGAAGGAGCCGCAACGAAGTTATTAAGGGATGAATAATCCCTCAACATAAATATCTCTCACTTATTTAAA”, under setting [2], the “cleaved RNA product abundance” value stood at 0.447.

In the case of “ACAGACGAAGGAGCCGCAACGAAGTTATTAAGGGATGAATAATCCCTCAATATAAATAACTCTCACTTATTTAAA”, the “cleaved RNA product abundance” value is 0.695 under setting [1] and 0.827 under setting [2].

As to “ACAGACGAAGGAGCCGCAACGAAGTTATTAAGGGATGAATAATCCCTCAATATAAATATCTCTCACTTATTTAAA”, the “cleaved RNA product abundance” value by setting is: under setting [1], 0.908; under setting [2], 0.915; (experiment (reporter, strain, medium): exp 6: tetM reporter, strain 168) 0.595.
